Experimental data taken from patent US20170253933A1, “COMPOSITIONS AND METHODS FOR TREATING AND DIAGNOSING CHEMOTHERAPY-RESISTANT CANCERS” (Genentech, Inc., priority 2014, published 2017).
Entries after “also recorded” stand apart in the source; their conditions may differ.

Test system: ES-2 cells
Experiment: Chemotherapy resistance of ES-2 cells on protein-coated plates (Cell-Titre Glo viability, % growth benefit)
Assay type: cell-based
Source text: (A) Increased desmoplasia is correlated with POSTN expression and primary chemotherapy-resistance. Representative high magnification images of hematoxylin and eosin (H&E) staining of tumor specimens (upper panels) and POSTN ISH images (lower panel) are shown. Desmoplasia scores were defined as follows: 0=no desmoplasia, 1=few scattered desmoplastic foci abutting cancer cells, 2=several desmoplastic foci abutting cancer cells or moderate confluent (wider) desmoplasia, but not present throughout the section, 3=desmoplastic reaction throughout section, associated with most cancer cells. Labels: DS=desmoplastic stroma, NS=normal stroma, TC =tumor cells. Arrows point to examples of tumor cells. A dotted line encircles a region containing tumor cells. Size bars, 100 μm. (B) Summary of desmoplasia scores in 21 Plat-S primary, 18 Plat-R primary, and 21 Plat-R recurrent tumor specimens; (C) POSTN promotes chemotherapy-resistance in chemotherapy-sensitive ES2 ovarian cells in vitro. 96-well plates were coated with recombinant protein FN1 or POSTN or left uncoated before cells were plated into each well. 10 μM carboplatin or 10 nM taxol was then added to each well on the next day. Cell-Titre Glo® reagents were added at 72 hours after compound treatment to measure cell viability. The viability in coated wells was then compared with viability in uncoated wells to calculate % growth benefit. […]

B1: POSTN: recombinant full-length POSTN (Cat #3548-F2, R&D Systems) used to coat culture plates (protein, UniProt Q15063 22-836, looked up)
Periostin: NNHYDKILAHSRIRGRDQGPNVCALQQILGTKKKYFSTCKNWYKKSICGQKTTVLYECCPGYMRMEGMKGCPAVLPIDHVYGTLGIVGATTTQRYSDASKLREEIEGKGSFTYFAPSNEAWDNLDSDIRRGLESNVNVELLNALHSHMINKRMLTKDLKNGMIIPSMYNNLGLFINHYPNGVVTVNCARIIHGNQIATNGVVHVIDRVLTQIGTSIQDFIEAEDDLSSFRAAAITSDILEALGRDGHFTLFAPTNEAFEKLPRGVLERIMGDKVASEALMKYHILNTLQCSESIMGGAVFETLEGNTIEIGCDGDSITVNGIKMVNKKDIVTNNGVIHLIDQVLIPDSAKQVIELAGKQQTTFTDLVAQLGLASALRPDGEYTLLAPVNNAFSDDTLSMDQRLLKLILQNHILKVKVGLNELYNGQILETIGGKQLRVFVYRTAVCIENSCMEKGSKQGRNGAIHIFREIIKPAEKSLHEKLKQDKRFSTFLSLLEAADLKELLTQPGDWTLFVPTNDAFKGMTSEEKEILIRDKNALQNIILYHLTPGVFIGKGFEPGVTNILKTTQGSKIFLKEVNDTLLVNELKSKESDIMTTNGVIHVVDKLLYPADTPVGNDQLLEILNKLIKYIQIKFVRGSTFKEIPVTVYTTKIITKVVEPKIKVIEGSLQPIIKTEGPTLTKVKIEGEPEFRLIKEGETITEVIHGEPIIKKYTKIIDGVPVEITEKETREERIITGPEIKYTRISTGGGETEETLKKLLQEEVTKVTKFIEGGDGHLFEDEEIKRLLQGDTPVRKLQANKKVQGSRRRLREGRSQ
cell growth with coating alone (ES-2 cells on coated plates, in the absence of chemotherapy treatment): small increase in cell growth | resistance to carboplatin or paclitaxel treatment (viability in coated wells vs uncoated wells, % growth benefit) (ES-2 ovarian cancer cells on coated plates, 10 μM carboplatin or 10 nM paclitaxel, viability at 72 hours): became resistant to carboplatin and paclitaxel treatment; also recorded: significantly more resistant to carboplatin or paclitaxel treatment
